Measurements as given in paper PMC9633295 (Cancer Science, 2022).

Key:
[1] = molecular target: T1, recombinant human CD155-Fc fusion protein, mutant (Ala67Thr) (human, UniProt P15151 21-343, Ala67Thr); experiment: BLI
T1 sequence (looked up): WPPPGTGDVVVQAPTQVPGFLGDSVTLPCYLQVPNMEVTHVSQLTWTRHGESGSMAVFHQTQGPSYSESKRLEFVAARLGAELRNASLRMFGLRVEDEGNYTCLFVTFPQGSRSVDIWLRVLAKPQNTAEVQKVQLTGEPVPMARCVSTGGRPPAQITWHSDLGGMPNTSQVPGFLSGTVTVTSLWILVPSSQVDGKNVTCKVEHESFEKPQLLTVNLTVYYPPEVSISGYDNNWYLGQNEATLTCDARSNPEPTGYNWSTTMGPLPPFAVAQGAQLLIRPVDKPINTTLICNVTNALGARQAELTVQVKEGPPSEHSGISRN

[2] = molecular target: T2, recombinant human CD155-Fc fusion protein, WT (human, UniProt P15151 21-343); experiment: BLI
T2 sequence (looked up): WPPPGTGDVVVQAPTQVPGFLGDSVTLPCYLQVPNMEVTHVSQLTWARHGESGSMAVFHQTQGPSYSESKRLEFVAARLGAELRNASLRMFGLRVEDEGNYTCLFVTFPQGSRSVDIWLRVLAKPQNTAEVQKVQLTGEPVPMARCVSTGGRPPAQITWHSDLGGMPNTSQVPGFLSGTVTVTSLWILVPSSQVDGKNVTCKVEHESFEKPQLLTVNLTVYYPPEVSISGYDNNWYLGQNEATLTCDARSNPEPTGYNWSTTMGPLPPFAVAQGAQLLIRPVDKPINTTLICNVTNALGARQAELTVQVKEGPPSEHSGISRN

B1: His-tagged recombinant human DNAM-1 (receptor, UniProt Q15762 19-254, looked up)
chain: EEVLWHTSVPFAENMSLECVYPSMGILTQVEWFKIGTQQDSIAIFSPTHGMVIRKPYAERVYFLNSTMASNNMTLFFRNASEDDVGYYSCSLYTYPQGTWQKVIQVVQSDSFEAAVPSNSHIVSEPGKNVTLTCQPQMTWPVQAVRWEKIQPRQIDLLTYCNLVHGRNFTSKFPRQIVSNCSHGRWSVIVIPDVTVSDSGLYRCYLQASAGENETFVMRLTVAEGKTDNQYTLFVA
[1]
  binding result: binds
[2]
  binding result: binds
